# Test results published in patent US20250034212A1, “PEPTIDE” (PEPTIDREAM INC., priority 2021, published 2025).
# Starred links: 1 amine or outer side, 2 acyl side, 3 side chain; linkers in the order of their positions; H or OH if unused. Positions of bridges follow the written chain, without caps; N, C: chain ends. Non-standard residues stand in square brackets, D forms with d. KCOmeglumine = N6-(methyl-((2S,3R,4R,5R)-2,3,4,5,6-pentahydroxyhexyl)carbamoyl)-L-lysine, CN(C[C@H](O)[C@@H](O)[C@H](O)[C@H](O)CO)C(=O)NCCCC[C@H](N[*:1])C(=O)[*:2]; KCOpipzaa = N6-(4-(carboxymethyl)piperazine-1-carbonyl)-L-lysine, O=C(NCCCC[C@H](N[*:1])C(=O)[*:2])N1CCN(CC(=O)[*:3])CC1; 1Nal = N[C@@H](Cc1cccc2ccccc12)C(=O)O; Gly(NCH2CH2Ph) = O=C(O)CNCCc1ccccc1; 4Pal = N[C@@H](Cc1ccncc1)C(=O)O
# B1: TGFb1_025 (peptide)
# peptide: {CH2CO}-F[1Nal]V[KCOmeglumine]NV[4Pal]D[KCOpipzaa][Gly(NCH2CH2Ph)]V[1Nal]YH[KCOpipzaa]CG-NH2
# modifications: thioether N-16
# SMILES: CC(C)[C@@H]1NC(=O)CN(CCc2ccccc2)C(=O)[C@H](CCCCNC(=O)N2CCN(CC(=O)O)CC2)NC(=O)[C@H](CC(=O)O)NC(=O)[C@H](Cc2ccncc2)NC(=O)[C@H](C(C)C)NC(=O)[C@H](CC(N)=O)NC(=O)[C@H](CCCCNC(=O)N(C)C[C@H](O)[C@@H](O)[C@H](O)[C@H](O)CO)NC(=O)[C@H](C(C)C)NC(=O)[C@H](Cc2cccc3ccccc23)NC(=O)[C@H](Cc2ccccc2)NC(=O)CSC[C@@H](C(=O)NCC(N)=O)NC(=O)[C@H](CCCCNC(=O)N2CCN(CC(=O)O)CC2)NC(=O)[C@H](Cc2c[nH]cn2)NC(=O)[C@H](Cc2ccc(O)cc2)NC(=O)[C@H](Cc2cccc3ccccc23)NC1=O
# B2: TGFb1_024 (peptide)
# peptide: {CH2CO}-F[1Nal]V[KCOmeglumine]NV[4Pal]DE[Gly(NCH2CH2Ph)]V[1Nal]YH[KCOpipzaa]CG-NH2
# modifications: thioether N-16
# SMILES: CC(C)[C@@H]1NC(=O)CN(CCc2ccccc2)C(=O)[C@H](CCC(=O)O)NC(=O)[C@H](CC(=O)O)NC(=O)[C@H](Cc2ccncc2)NC(=O)[C@H](C(C)C)NC(=O)[C@H](CC(N)=O)NC(=O)[C@H](CCCCNC(=O)N(C)C[C@H](O)[C@@H](O)[C@H](O)[C@H](O)CO)NC(=O)[C@H](C(C)C)NC(=O)[C@H](Cc2cccc3ccccc23)NC(=O)[C@H](Cc2ccccc2)NC(=O)CSC[C@@H](C(=O)NCC(N)=O)NC(=O)[C@H](CCCCNC(=O)N2CCN(CC(=O)O)CC2)NC(=O)[C@H](Cc2c[nH]cn2)NC(=O)[C@H](Cc2ccc(O)cc2)NC(=O)[C@H](Cc2cccc3ccccc23)NC1=O
# B3: TGFb1_020 (peptide)
# peptide: {CH2CO}-F[1Nal]V[KCOmeglumine]NV[4Pal]DD[Gly(NCH2CH2Ph)]V[1Nal]YH[KCOpipzaa]CG-NH2
# modifications: thioether N-16
# SMILES: CC(C)[C@@H]1NC(=O)CN(CCc2ccccc2)C(=O)[C@H](CC(=O)O)NC(=O)[C@H](CC(=O)O)NC(=O)[C@H](Cc2ccncc2)NC(=O)[C@H](C(C)C)NC(=O)[C@H](CC(N)=O)NC(=O)[C@H](CCCCNC(=O)N(C)C[C@H](O)[C@@H](O)[C@H](O)[C@H](O)CO)NC(=O)[C@H](C(C)C)NC(=O)[C@H](Cc2cccc3ccccc23)NC(=O)[C@H](Cc2ccccc2)NC(=O)CSC[C@@H](C(=O)NCC(N)=O)NC(=O)[C@H](CCCCNC(=O)N2CCN(CC(=O)O)CC2)NC(=O)[C@H](Cc2c[nH]cn2)NC(=O)[C@H](Cc2ccc(O)cc2)NC(=O)[C@H](Cc2cccc3ccccc23)NC1=O
# B4: TGFb1_019 (peptide)
# peptide: {CH2CO}-F[1Nal]V[KCOpipzaa]NV[4Pal]DD[Gly(NCH2CH2Ph)]V[1Nal]YH[KCOpipzaa]CG-NH2
# modifications: thioether N-16
# SMILES: CC(C)[C@@H]1NC(=O)CN(CCc2ccccc2)C(=O)[C@H](CC(=O)O)NC(=O)[C@H](CC(=O)O)NC(=O)[C@H](Cc2ccncc2)NC(=O)[C@H](C(C)C)NC(=O)[C@H](CC(N)=O)NC(=O)[C@H](CCCCNC(=O)N2CCN(CC(=O)O)CC2)NC(=O)[C@H](C(C)C)NC(=O)[C@H](Cc2cccc3ccccc23)NC(=O)[C@H](Cc2ccccc2)NC(=O)CSC[C@@H](C(=O)NCC(N)=O)NC(=O)[C@H](CCCCNC(=O)N2CCN(CC(=O)O)CC2)NC(=O)[C@H](Cc2c[nH]cn2)NC(=O)[C@H](Cc2ccc(O)cc2)NC(=O)[C@H](Cc2cccc3ccccc23)NC1=O
# B5: TGFb1_026 (peptide)
# peptide: {CH2CO}-F[1Nal]V[KCOmeglumine]NV[4Pal]D[KCOmeglumine][Gly(NCH2CH2Ph)]V[1Nal]YH[KCOpipzaa]CG-NH2
# modifications: thioether N-16
# SMILES: CC(C)[C@@H]1NC(=O)CN(CCc2ccccc2)C(=O)[C@H](CCCCNC(=O)N(C)C[C@H](O)[C@@H](O)[C@H](O)[C@H](O)CO)NC(=O)[C@H](CC(=O)O)NC(=O)[C@H](Cc2ccncc2)NC(=O)[C@H](C(C)C)NC(=O)[C@H](CC(N)=O)NC(=O)[C@H](CCCCNC(=O)N(C)C[C@H](O)[C@@H](O)[C@H](O)[C@H](O)CO)NC(=O)[C@H](C(C)C)NC(=O)[C@H](Cc2cccc3ccccc23)NC(=O)[C@H](Cc2ccccc2)NC(=O)CSC[C@@H](C(=O)NCC(N)=O)NC(=O)[C@H](CCCCNC(=O)N2CCN(CC(=O)O)CC2)NC(=O)[C@H](Cc2c[nH]cn2)NC(=O)[C@H](Cc2ccc(O)cc2)NC(=O)[C@H](Cc2cccc3ccccc23)NC1=O
# B6: TGFb1_030 (peptide)
# peptide: {CH2CO}-F[1Nal]V[KCOmeglumine]NV[4Pal]D[KCOmeglumine][Gly(NCH2CH2Ph)]V[1Nal]YHECG-NH2
# modifications: thioether N-16
# SMILES: CC(C)[C@@H]1NC(=O)CN(CCc2ccccc2)C(=O)[C@H](CCCCNC(=O)N(C)C[C@H](O)[C@@H](O)[C@H](O)[C@H](O)CO)NC(=O)[C@H](CC(=O)O)NC(=O)[C@H](Cc2ccncc2)NC(=O)[C@H](C(C)C)NC(=O)[C@H](CC(N)=O)NC(=O)[C@H](CCCCNC(=O)N(C)C[C@H](O)[C@@H](O)[C@H](O)[C@H](O)CO)NC(=O)[C@H](C(C)C)NC(=O)[C@H](Cc2cccc3ccccc23)NC(=O)[C@H](Cc2ccccc2)NC(=O)CSC[C@@H](C(=O)NCC(N)=O)NC(=O)[C@H](CCC(=O)O)NC(=O)[C@H](Cc2c[nH]cn2)NC(=O)[C@H](Cc2ccc(O)cc2)NC(=O)[C@H](Cc2cccc3ccccc23)NC1=O
# Molecular target: recombinant human TGF-β1 (R&D systems) (human, UniProt P01137 279-390)
# Assay: cell-based or functional assay
# recombinant human TGF-β1 (R&D systems), sequence (P01137 279-390 limits assumed): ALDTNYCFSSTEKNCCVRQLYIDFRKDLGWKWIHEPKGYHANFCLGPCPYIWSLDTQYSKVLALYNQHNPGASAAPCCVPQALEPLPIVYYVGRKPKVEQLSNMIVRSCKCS
"SBE reporter % inhibition, peptide 0.062 nM [%]","SBE reporter % inhibition, peptide 0.185 nM [%]","SBE reporter % inhibition, peptide 0.56 nM [%]","SBE reporter % inhibition, peptide 1.7 nM [%]","SBE reporter % inhibition, peptide 5.0 nM [%]","SBE reporter % inhibition, peptide 15.0 nM [%]",Binder
4.81,18.4,43.3,77.5,94.7,99.4,B1
5.79,16.6,45,80.2,95.5,98.9,B2
8.5,15.8,36.3,70.4,89.3,96.9,B3
5.21,11.3,30.2,61.6,87.8,96.4,B4
6.85,17.8,41.4,74.3,93.4,98,B5
10.9,14.3,29.9,52.5,80.8,95.2,B6
